Earlier results as cited in paper PMC6997106.

Biological target: RAGE V-domain V-domain (Homo sapiens) (UniProt Q15109)
Test: SPR

Chain of RAGE V-domain V-domain (Homo sapiens) (Q15109 23-116): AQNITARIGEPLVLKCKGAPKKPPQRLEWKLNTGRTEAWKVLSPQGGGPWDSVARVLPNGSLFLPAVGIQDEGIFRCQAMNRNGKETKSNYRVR
Chain of S100B (P04271 2-92): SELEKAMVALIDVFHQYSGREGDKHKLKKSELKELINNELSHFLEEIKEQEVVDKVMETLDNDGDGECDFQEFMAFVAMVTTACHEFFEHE

S100B (from UniProt P04271)
Kd: 500 nM
